Test results from paper PMC10487846.

What was measured:
[1] = molecular target: recombinant wild type (wt) XptA2 (Xenorhabdus nematophilus); assay: cryo-EM structure; single-particle cryo-EM of wt XptA2, pre-pore state; first map 7.2 Å, final map 3.1 Å (3.02 Å in the methods); 10 mM Tris, 100 mM NaCl, pH 7.5; C5 symmetry
[2] = molecular target: seleno-methionine (SeMet) labeled XptA2 (Xenorhabdus nematophilus); assay: crystal structure; SeMet XptA2 crystals grown in 0.1 M HEPES pH 7.5, 0.2 M NaCl, 16-20% PEG-3000; MR-SAD phasing with the 7 Å cryo-EM map; 3.1 Å; pre-pore state

Substance recombinant wild type (wt) XptA2 has a stoichiometry N [1] of 5.

seleno-methionine (SeMet) labeled XptA2 showed a stoichiometry N [2] of 5.
